For experiment [1], the target named is HeV G ectodomain (Hendra virus attachment glycoprotein, residues 71-604), Strep-tagged (Hendra virus) (UniProt O89343). Nature of the experiment: SDS-PAGE without reduction and boiling.
Experiment [2] addresses NiVMY G ectodomain (Nipah virus Malaysia attachment glycoprotein, residues 71-602), Strep-tagged (Nipah virus (Malaysia strain)) (UniProt Q9IH62). Nature of the experiment: SDS-PAGE without reduction and boiling.
Experiment [3] deals with prefusion soluble NiV F (sF; NiVBD fusion protein residues 26-482 with GCNt motif) (Nipah virus Bangladesh (NiVBD)). The experiment can be described thus: MST.
Experiment [4] shares this target. Nature of the experiment: BLI. For orientation: In BLI a coated tip is dipped into the sample, and binding shifts an interference pattern.

Values joined by “and” are separate entries in the source; they are usually repeats but may differ in a detail not shown here. Equal entries are not always repeated.

Take “HeV G ectodomain (Hendra virus attachment glycoprotein, residues 71-604), Strep-tagged (from UniProt O89343 71-604) (domain or fragment)”: the stoichiometry N in experiment [1] is 4 and 2. For “NiVMY G ectodomain (Nipah virus Malaysia attachment glycoprotein, residues 71-602), Strep-tagged (from UniProt Q9IH62 71-602) (domain or fragment)”, the stoichiometry N in experiment [2] was 4 and 2. With P-59 (peptide of NiVBD G, 233-247 aa), the equilibrium dissociation constant (Kd) in experiment [3] amounted to 5000 nM; in experiment [4], 190 nM.

What is called stoichiometry N is the number of molecules, sites or subunits per partner or assembly. By Kd is commonly meant a measure of binding affinity in units of concentration.

(Values after PMC11109247.)
